Stoichiometry N and Km data for three substances are collected here from PMC5991677, “3-methylcrotonyl Coenzyme A (CoA) carboxylase complex is involved in the Xanthomonas citri subsp. citri lifestyle during citrus infection” (PLoS ONE, 2018).

In data set [1] the target is His-AccD, β subunit of the 3-methylcrotonyl-CoA carboxylase (MCC) complex of Xanthomonas citri subsp. citri (XAC0264) (Xanthomonas citri subsp. citri) (UniProt Q8PJ30). Nature of the data set: SEC; Superdex S200, 500 μg of AccC, AccD or the complex (preincubated mixture of both) loaded; 50 mM potassium phosphate pH 7.6, 50 mM NaCl, 0.5 mM DTT; calibrated with mass standards; fractions of the complex analysed by SDS-PAGE. (In general: In gel filtration, larger molecules generally elute earlier.)

Data set [2] has as its system CC(C)=CC(=O)SCCNC(=O)CCNC(=O)[C@H](O)C(C)(C)COP(=O)(O)OP(=O)(O)OC[C@H]1O[C@@H](n2cnc3c(N)ncnc32)[C@H](O)[C@@H]1OP(=O)(O)O. The data set is described as follows: purified protein. The settings on record: co-substrates ATP and bicarbonate, Mg; 3-methylcrotonyl-CoA varied 1-1000 μM; enzyme complex 0.05 μM (Fig 4 legend says 0.5 μM).

The stoichiometry N is the number of molecules, sites or subunits per partner or assembly. Broadly, the Km is the substrate concentration at which the rate is half of its maximum.

On to “His-AccC, α subunit of the 3-methylcrotonyl-CoA carboxylase (MCC) complex of Xanthomonas citri subsp. citri (XAC0263) (from UniProt A0AAI8ER48 1-675) (natural protein)”, for which the stoichiometry N in data set [1] came out at 1.

Take “His-AccD, β subunit of the 3-methylcrotonyl-CoA carboxylase (MCC) complex of Xanthomonas citri subsp. citri (XAC0264) (from UniProt Q8PJ30 1-295) (natural protein)”: the stoichiometry N in data set [1] was determined as 6.

As to “MCC complex (His-AccC / His-AccD, α6β6) (Xanthomonas citri subsp. citri 306)”, in data set [2], the Km was determined as 71.4 µM.
